Assay results reported in patent publication US20110288485A1, “MICRONEEDLE DEVICE” (HISAMITSU PHARMACEUTICAL CO., INC., priority 2008, published 2011).

Experiments:
[1] = Study on drying time of a sucrose additive to PTH, stability of content (Example 8); format: physicochemical; conditions: 60° C.
Experimental: (§1) A medicinal unit sample for screening of a stabilizing agent was fully dried and enclosed in an aluminum packing material, sandwiched between silicon treated liners, with OZO (OZO kagakugiken Co., Ltd.). It was then stored at 25° C., 40° C., 50° C., and 60° C. to perform an acceleration test to conduct a stability test of the content over time (n=3). The content was returned to room temperature, and then extracted with 4 mL of an extraction liquid, followed by measurement by HPLC.
Using this solution, a drug solution unit was produced, and preservation qualities resulting from various drying times were examined under a nitrogen stream.

[2] = Hairless rat in vivo absorption test by microneedles (parathyroid hormone)
Text: (§2) Two types of microneedles made of a polylactic acid that differ in the length of the needle part (h: 300 μm and 500 μm) were used. The shape of either of these two types of microneedles was square pyramid, and the density of the microneedle was 400 needles/cm^2. Also, the area of either one of microneedle devices was 1 cm^2.
Firstly, the abdomen of a hairless rat was pierced with a microneedle device in which tips of the needles were coated with a similar coating liquid to Example 2 (30% human parathyroid hormone hPTH (1-34) (the product of Sichuan Unibiochem Co., Ltd.), 7.5% pullulan, and 0.1% Tween 20) by a similar technique to Example 1 by hand pushing, and the microneedle device was covered with a foam tape (the product of 3M Company) and left attached for six hours. Then, blood was collected over time (amount of blood collected 200 μL/times) to measure the serum hPTH concentration with a Rat PTH IRMA kit (the product of Immutopics International). Also, in a subcutaneous administration group, 0.2 mg/mL hPTH in physiological saline was prepared, 40 μL of which was subcutaneously administered to the back of a hairless rat, and the PTH concentration was similarly measured.

[3] = PTH storage method: acceleration stability test of the content, form of package and stabilizing agent (Example 6); format: physicochemical
Experimental: PTH was prepared at 40 mg/mL with water for injection, which was then dispensed to serve as a drug solution. It was further diluted to 20 mg/mL with water for injection before experiment, 20 μL of which was added dropwise to a microneedle base (400 μg/patch), which served as a medicinal unit.
as §1
Extraction liquid: a 0.01% benzalkonium chloride solution or 2% TMTDAB, 1% sodium chloride, and 10 mM acetic acid buffer
Detector: an ultraviolet absorptiometer (measurement wavelength: 220 nm)
Column temperature: 25° C.

[4] = PTH/pullulan coating liquid: solubility evaluation and amount of PTH coated on microneedles (Example 9); format: physicochemical; conditions: 30% or 40% PTH solution with small amount of surfactant (Tween 20)
Experimental: In order to optimize a ratio between PTH (1-34) (the product of Sichuan Unibiochem Co., Ltd.) and a coating carrier, which is a water-soluble high molecular weight polymer, a study was conducted using PTH and a coating carrier (pullulan). […] The concentration of pullulan was adjusted based on the viscosity of the solution at the time of dissolving, and the range of the concentration of pullulan was set to 0 to 30% (w/w). It is to be noted that, as the pullulan, one recited in Japanese Pharmacopeia (the product of Hayashibara Biochemical Labs., Inc.) was used. Further, in order to increase the adhesiveness to the needles, a study was also conducted for the case in which a surfactant (Tween20, 0.1%) was added as shown in Table 7.
Evaluation of solubility of PTH was performed after adjusting each solution, and a coating liquid capable of adjusting a uniform solution was subjected to an operation for coating of microneedles made of a polylactic acid. Following the aforementioned method as a coating method, coating was performed only on the tip part of the needles with the use of a metal mask (only the needle part was coated using a metal mask having a diameter of the aperture: 220 μm and thickness: 100 μm).

[5] = Study on the addition amount of sucrose to PTH, stability of content (Example 7); format: physicochemical
Experimental: as §1
Other than this, the study was conducted in the same manner as the aforementioned Examples.

[6] = In vitro human skin penetration test by microneedles (parathyroid hormone); format: in vitro ADME; conditions: microneedles height 500 μm compared with 300 μm; 40 μg hPTH coated; attachment six hours
Text: as §2
A coating liquid prepared according to the below-described technique (30% human parathyroid hormone hPTH (1-34) (the product of Sichuan Unibiochem Co., Ltd.), 7.5% pullulan, and 0.1% Tween 20) was coated on a microneedle device similarly to Example 1, and after piercing excised human skin with this microneedle device by finger pressing (2 kg/patch), the device and the skin were placed on an acrylic cell for sampling over time. As a receptor layer, physiological saline containing 0.01% benzalkonium chloride was used, and 1 mL of a receptor liquid collected per sampling time was measured by a gamma counter to calculate a PTH concentration. It is to be noted that a period of attachment of the microneedle device was set at six hours. The results of the sampling are as shown in the graph in FIG. 5.
(2) After coating microneedles with the coating solution prepared in (1), radiation of each pharmaceutical preparation was counted using a NaI counter to estimate the content of PTH coated on the needle part. […]

Question: Which “residual ratio (%) relative to the initial value” ([1]; drying time 15 minutes, 1W) does the source give for human parathyroid hormone hPTH (1-34) here?
Answer: 85.35 ± 0.64%

Question: And the “residual ratio (%) relative to the initial value” ([1]; drying time 15 minutes, 4W)?
Answer: 75.43 ± 1.69%

Question: What about the “residual ratio (%) relative to the initial value” ([1]; drying time 30 minutes, 1W) of the same substance?
Answer: 85.53 ± 0.49%

Question: And the “residual ratio (%) relative to the initial value” ([1]; drying time 30 minutes, 4W)?
Answer: 73.10 ± 0.36%

Question: What about the “residual ratio (%) relative to the initial value” ([1]; drying time 1 hour, 1W) of the same substance?
Answer: 84.62 ± 0.72%

Question: What about the “residual ratio (%) relative to the initial value” ([1]; drying time 1 hour, 4W) of the same substance?
Answer: 75.56 ± 1.69%

Question: What about the “residual ratio (%) relative to the initial value” ([1]; drying time 2 hours, 1W) of the same substance?
Answer: 86.01 ± 1.07%

Question: And the “residual ratio (%) relative to the initial value” ([1]; drying time 2 hours, 4W)?
Answer: 73.93 ± 1.41%

Question: What about the “residual ratio (%) relative to the initial value” ([1]; drying time 16 hours, 1W) of the same substance?
Answer: 87.08 ± 0.72%

Question: And the “residual ratio (%) relative to the initial value” ([1]; drying time 16 hours, 4W)?
Answer: 72.71 ± 2.01%

Question: And the “initial rise in the blood concentration, reaching maximum blood concentration” value ([2]; microneedle device vs subcutaneous administration)?
Answer: more rapidly reached than subcutaneous administration

Question: And the “amount of absorption (serum hPTH)” value ([2]; microneedle length 300 and 500 μm, attached six hours)?
Answer: increases in the amount of absorption dependent on the length of the microneedles

Question: What about the “residual ratio (%) relative to the initial value” ([3]; 40° C., 1W) of the same substance?
Answer: 100.22 ± 0.53%

Question: And the “residual ratio (%) relative to the initial value” ([3]; 40° C., 2W)?
Answer: 97.64 ± 0.72%

Question: And the “residual ratio (%) relative to the initial value” ([3]; 40° C., 4W)?
Answer: 97.02 ± 0.65%

Question: What about the “residual ratio (%) relative to the initial value” ([3]; 50° C., 1W) of the same substance?
Answer: 94.65 ± 1.55%

Question: And the “residual ratio (%) relative to the initial value” ([3]; 50° C., 2W)?
Answer: 94.10 ± 2.25%

Question: And the “residual ratio (%) relative to the initial value” ([3]; 50° C., 4W)?
Answer: 84.26 ± 1.19%

Question: And the “residual ratio (%) relative to the initial value” ([3]; 60° C., 1W)?
Answer: 89.50 ± 1.11%

Question: What about the “residual ratio (%) relative to the initial value” ([3]; 60° C., 2W) of the same substance?
Answer: 88.22 ± 0.82%

Question: What about the “residual ratio (%) relative to the initial value” ([3]; 60° C., 4W) of the same substance?
Answer: 71.80 ± 1.94%

Question: And the “amount of PTH attached by single coating operation” value [4]?
Answer: ≥ 20 µg

Question: What about the “residual ratio (%) relative to the initial value” ([5]; 40° C., 1W) of the same substance?
Answer: 83.26 ± 0.57%

Question: And the “residual ratio (%) relative to the initial value” ([5]; 40° C., 4W)?
Answer: 92.82 ± 0.74%

Question: And the “residual ratio (%) relative to the initial value” ([5]; 50° C., 4W)?
Answer: 80.83 ± 4.57%

Question: And the “residual ratio (%) relative to the initial value” ([5]; 60° C., 4W)?
Answer: 76.55 ± 3.95%

Question: And the skin penetration property [6]?
Answer: efficient drug delivery is made possible
